This test deals with Cathepsin L (UniProt P07711). Put plainly: cell-based or functional assay.

For the substance “Wild Type SerpinB3 (from UniProt P29508 1-390)”, the CatL inhibition (residual activity on Z-FR-AMC after 2 min incubation with serpin, 1:5 protease:serpin) turned out to be 95%.

Values taken from US20240350597A1, “PROTEASE INHIBITORS” (University College Dublin, priority 2023, published 2024).
